From the supplement of paper PMC12042874
± gives the uncertainty stated by the source.

Assays:
[1] = amyloid nucleation score (Sup35N fusion, yeast selection) (log enrichment); library NNK2; higher = more nucleation; inactive = no reads after selection
Summary of the method: (§1)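 Plasmid inserts were Illumina-sequenced at input and output from psi-negative yeast expressing Sup35N fused to peptides of 20 random codons. The yeast were induced with 100 μM copper sulfate for 24 hours and grown 7 days at 30°C on medium lacking adenine and uracil, and sequences with under 100 input reads were excluded. Nucleation score is the DiMSum log enrichment of output over input reads, centred on the mode score of non-aggregating sequences.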

[2] = amyloid nucleation score (Sup35N fusion, yeast selection) (log enrichment); library NNK3; higher = more nucleation; inactive = no reads after selection
Summary of the method: as §1

Substance | amyloid nucleation score [1] | amyloid nucleation score [2]
SFLSRL | -0.4 ± 0.65 | 
YALDL | 0.08 ± 0.55 | 
RRPCLS | -1.09 ± 0.63 | 
GSGNPGMSIFVKIY | -1.16 ± 0.62 | 
HFTYGSSFIL | 3.53 ± 0.069 | 
PSCDVFVKIRLHFAFVKNFI | inactive | 
LSRWKDRSRGWRGDAAPRIR | 0.539 ± 0.56 | 
FLMYK | -0.75 ± 0.76 | 
PSMIYFYRGSSLFASWGFLI | inactive | 
RGVVGLDSIRWPSFGAVMKF | -0.757 ± 0.48 | 
FTFFIRYLERDWPRLL | -0.549 ± 0.74 | 
YIYETTLCYNTIPGL | -0.848 ± 0.29 | 
QTRTQEFFRSFNKVFTQ | 2.59 ± 0.061 | 
CISTYN | -0.822 ± 0.44 | 
VQGPHSFNGVGCRPFSNERR | -0.202 ± 1.1 | 
SSFLATVSVQCNDRYNSHRS | 4.26 ± 0.064 | 
GISCYLRVHTSANDESCSER | 0.426 ± 0.8 | 
GTFKDGMDSA | 3.75 ± 0.14 | 
CSLAFVHRAIFSMSLLHSET | 0.136 ± 0.4 | 
GPLLVIWVRTLGRELG | 0.841 ± 0.26 | 
YGAYVYINSFCKYNIIRSRS | 6.034 ± 0.043 | 
TDKIWSCHLGQTAWLSKSSG | 0.385 ± 0.33 | 
VVCEASTCDMLESEWFWAEF | 0.226 ± 0.23 | 
PISFVCYMEKVLDYANWPCR | 8.458 ± 0.066 | 
RGNHNHGLWNPKNSMVMWEG | 0.062 ± 0.48 | 

Substance | amyloid nucleation score [1] | amyloid nucleation score [2]
GVPLLLRMTCSLCRIAFQE | 4.28 ± 0.069 | 
YGLAC | 2.44 ± 0.072 | 
MNPYLVGPFERVV | 0.061 ± 0.33 | 
CIEMFFETVFTKGLSRYACW | -0.55 ± 0.3 | 
FISSSYSKEFSIYEFIDIFR | -0.539 ± 0.54 | 
GVEVKSNVWTVSGWESQTPQ | 1.89 ± 0.42 | 
TLRTFRRAQGTRYVYLK | 0.121 ± 0.23 | 
CMAIDLPVHYS | 0.005 ± 0.55 | 
YIWYFKMEVDYVLMMYAVAG | 0.183 ± 1 | 
AHCVRVLHIKSRMVVSWESR | 4.19 ± 0.099 | 
VTYLMCLWAGVARG | -0.324 ± 1.1 | 
QLFFRYYCEAGDVCIFGHIA | 3.32 ± 0.099 | 
NIVVVYIEFSGVHPTLVLLW | -0.42 ± 0.3 | 
ELYWGS | 0.509 ± 0.57 | 
ESIRAGLRRSRLWNRGFGES | 0.738 ± 0.27 | 
RYVNVCYNSSAWGLFGTTHI | inactive | 
GFGCPA | -0.165 ± 1 | 
YSHSLHVIQKSFFCITVFVM | 5.28 ± 0.08 | 
VHQFADFNKIMNGLDDLLLK | 2.65 ± 0.081 | 
QWVDQVYIAETIVPLSNKVV | -0.398 ± 1 | 
YFNSLTQISSFRKFSRPLHS | 0.033 ± 0.38 | 
TAVWDL | 0.745 ± 0.42 | 
GLFVRQGGLRVCWVLPVHAA | 0.645 ± 0.41 | 
FIDIKSICCRHMNDWHCLSE | -0.603 ± 0.32 | 
AAVSSCLLFYSC | 3.5 ± 0.082 | 

Substance | amyloid nucleation score [1] | amyloid nucleation score [2]
GFLNLCRSTSRELMCEMYSA | -0.651 ± 1.1 | 
ATCSPSVSRVLGLCSWECFR | -0.382 ± 0.76 | 
VVRVFLKGSSCGSLEAFDYV | 2.86 ± 0.19 | 
YFLKSYGAFSMFQM | 3.19 ± 0.15 | 
SNDLTCTYVRIQCWAMEPAS | 5.142 ± 0.039 | 
FIPYNSW | 0.689 ± 0.16 | 
LQMPVVF | -0.577 ± 0.26 | 
NRRYLKPSGPEEGWMMLSGT | 1.03 ± 0.35 | 
KNNRVAFTLYFSQTARDWMH | 5.156 ± 0.046 | 
GDSFLWTHS | -0.994 ± 0.62 | 
SMDRLRRDGYLGSVVCYNRS | -0.935 ± 0.54 | 
WWSKEREYWSLPVGWFMEAV | 0.085 ± 0.45 | 
LRAGLMHGWMRFRCTRVACV | -0.914 ± 0.64 | 
RYHWEVLK | 0.082 ± 1 | 
KYVFGKTYPRY | inactive | 
VGWHPPVLTEYTMDQTAYTT | 1.39 ± 0.29 | 
NLSYDHPACCKWNRCYVKHR | 1.81 ± 0.14 | 
LAKHTGRAGKRCKDMP | -0.069 ± 0.31 | 
EMSGY | inactive | 
FRAPFTDAGPWSSSGNFLRL | -0.151 ± 0.37 | 
FANRILCVVSGINRVTGL | 0.192 ± 0.34 | 
ILNYSWALRVIDFTHRKVFS | -0.376 ± 0.2 | 
HFRVYSWIQVK | 0.337 ± 0.49 | 
TYVSKIWMKRCESDILRKVI | inactive | 
EYNDRCV | 0.974 ± 0.28 | 

Substance | amyloid nucleation score [1] | amyloid nucleation score [2]
AEAYGTSSRRSCCRGRVV | 0.476 ± 0.5 | 
TRMHESIWV | 1.73 ± 0.077 | 
RIRYGLKVCSMVDGMLGRDW | 0.807 ± 0.29 | 
KLYKCQRQCPALAKVTYGYK | 0.332 ± 0.27 | 
SPHLGLMCK | 0.416 ± 0.8 | 
MFIGLLVLRLLFAYQNDKSY | 0.153 ± 0.79 | 
GIYGSGIAFRRSGGWWEVCS | inactive | 
NSDISARCGSCVYLWYVSDD | 8.712 ± 0.048 | 
FTYRPISRNM | 4.99 ± 0.076 | 
EGICFLLMDCSCNNCFLALA | 4.66 ± 0.055 | 
RWRIARMITPNLPELLSLYR | 2.93 ± 0.059 | 
VLWCGDLFAYLYMYVFSSNS | 7.516 ± 0.051 | 
CLPGSH | 0.535 ± 0.74 | 
YERMWCHLLVLRPNKQK | 0.697 ± 0.81 | 
KRFYMT | 1.31 ± 0.081 | 
STVWVFRYYNNYWYDQRTLP | 6.807 ± 0.054 | 
NLSWLVNWMEYVRGRLW | -0.56 ± 0.4 | 
QRARTRYGLRSLSYSAYIWS | 0.807 ± 0.17 | 
DIIVVQCIVSVMCTMRASRS | 5.897 ± 0.051 | 
QLCLLCFLYMC | 3.16 ± 0.16 | 
PYQLRVSLTLMLISGSLDIY | 0.47 ± 0.5 | 
RAVEMVYCKLRMSQDGHLRW | 5.482 ± 0.048 | 
EGMSI | inactive | 
SWVRVDHLNDMYRFELK | 0.286 ± 0.46 | 
DIAKLLCYILCFNGKSRRWG | 0.127 ± 0.55 | 

Substance | amyloid nucleation score [1] | amyloid nucleation score [2]
RVFFTVCGMHTGSSKKLAGL | 1.23 ± 0.21 | 
SPKRFTCSGDCSR | -0.573 ± 0.78 | 
HLSGYKLLIKSVYFE | 3.63 ± 0.067 | 
PSNKLKWLCLDV | 0.576 ± 0.43 | 
KQLFSLISYVG | -1.4 ± 1.1 | 
SGYPRRIYWLVGKCLWYHRA | 0.921 ± 0.48 | 
SMFLMSCTDGVFHNRNLHVI | -0.662 ± 0.44 | 
CFTGFRVIMVNICEWCVVVS | 3.9 ± 0.098 | 
RRRRSGLCRAYVNVLNARTR | 0.79 ± 0.41 | 
TFLLAFFIFFLNG | -0.306 ± 0.53 | 
SCSISGMVVWDRMVKLSLSL | -0.317 ± 0.48 | 
RWVSGQTYVVLSIVR | 0.242 ± 0.28 | 
CVLYCVGFN | 6.483 ± 0.042 | 
AYCCINLHYNLKVS | 0.665 ± 0.65 | 
QVGRSSQCEDTVVFIRVRLW | 3.77 ± 0.066 | 
FIILI | -1.29 ± 0.54 | 
YLFDLVFILEQYFWL | 2.85 ± 0.049 | 
CVLDLNVMDGGLL | -1.26 ± 0.38 | 
DKCDMTSTIVSLLVSTPKWS | -0.142 ± 0.34 | 
VTFFTAFLTFVYCCMMLMYM | 7.32 ± 0.078 | 
GFDSDMVPHRSSRAVLC | 1.33 ± 0.46 | 
KKSRNPHGKFTWTFGFVKKL | -1.76 ± 1.1 | 
KAGESWTEGDSAVWGFLRLE | 0.942 ± 0.81 | 
ILEACREAARPAITFSFFTK | -1.04 ± 1.1 | 
RAWCYTGMRGDMESW | -0.447 ± 0.41 | 

Substance | amyloid nucleation score [1] | amyloid nucleation score [2]
ISPLIG | 0.33 ± 0.49 | 
TIFLFLFSMVSVVICLMVLP | -1.31 ± 0.55 | 
LRMHFMMWTRRVNLVRHGNN | inactive | 
FSNSHIVMVENLTDIVSVTT | inactive | 
IVQLWIWGVVPPFSDISHAL | 7.866 ± 0.05 | 
SCVGTN | -0.062 ± 0.55 | 
IGQRLCYCVCWRSSCGVVWQ | 1.46 ± 0.36 | 
TVIGLLIIVVGSYDVCSNVW | 6.163 ± 0.041 | 
LMCTSAKSADMSH | 0.992 ± 0.6 | 
NRFMVPETVKENIACFQTIQ |  | inactive
PTKRYVKSYLISCVFIISHP |  | inactive
IGHSTTYHKRQECSLVQWSS |  | inactive
SSMAVQRGGNYITMIYGH |  | inactive
PLFHVFLELYTLPFVENFDV |  | inactive
GRGYSSSTLWVLGWFD |  | inactive
FWMRFKHDW |  | 1.29 ± 0.16
SNSHWIYWYTNPGQHRPSHR |  | inactive
VGRSEIYPACPLHSFKMDKF |  | inactive
MNRTFVIIVKNVASMIKDNR |  | 2.1 ± 0.1
AHGTMGGNYGRNVQLDDRLN |  | inactive
TLLLAMNDVTSRLL |  | inactive
NDEMVY |  | inactive
QVGSRRNSS |  | inactive
ELVGIIDGCLKNMSSFTMRV |  | inactive
VYQGMYNKSAYC |  | inactive

Substance | amyloid nucleation score [1] | amyloid nucleation score [2]
NTSYSRMVCSKG |  | inactive
TCTYCRFRLSSLVSW |  | 0.366 ± 0.42
MCSRCLFHCGLVVCRVVVPA |  | inactive
SDCKMISHFGEVINILSYKI |  | inactive
TNYFESFY |  | -0.052 ± 1.2
LLRFP |  | inactive
PVLSYSVLRYL |  | inactive
NLLVLTDSVYIPLSHPYPNR |  | 0.493 ± 0.22
GEMVFGVVWIVELETFCIPI |  | inactive
PLQNKASVRVGCWAML |  | inactive
PSLYDLKRSCWGSWMAYEWK |  | inactive
PIMVRRHEGSH |  | inactive
SNSSYWRICRLETCNPVGYK |  | inactive
RRYPRTLYERVSCVS |  | inactive
QAVMKRAALVPTRTAKSLPS |  | inactive
SLSSWLWVVLIVHCMSGRNS |  | inactive
FSKIHI |  | inactive
FCDALMIVTEFGEGLWARWR |  | inactive
NRLYVKAELCSDAFRIVVAR |  | inactive
